Experimental data as given in the Immune Epitope Database (IEDB).

How the values were obtained:
HLA-A*01:01 = assay: IEDB peptide-MHC binding, purified MHC/direct/fluorescence; filed as Kd, often an IC50 or EC50 that approximates it; ≥ and ≤ were set here for values at or beyond the usual limits of such assays
HLA-A*02:01 = assay: as above
HLA-A*03:01 [1] = assay: as above
HLA-A*26:01 [2] = assay: as above
HLA-A*30:01 = assay: as above; settings: source organism: Rickettsia sibirica
HLA-A*31:01 [3] = assay: as above
HLA-A*69:01 = assay: as above
HLA-B*07:02 [4] = assay: as above
HLA-B*08:01 = assay: as above; settings: source organism: Rickettsia sibirica
HLA-B*15:01 [5] = assay: as above
HLA-B*27:05 [6] = assay: as above
HLA-B*40:01 [7] = assay: as above
HLA-B*44:02 = assay: as above; settings: source organism: Rickettsia sibirica
HLA-B*58:01 = assay: as above
HLA-A*03:01 [8] = assay: IEDB peptide-MHC binding, purified MHC/competitive/fluorescence; filed as Kd, often an IC50 or EC50 that approximates it; ≥ and ≤ were set here for values at or beyond the usual limits of such assays; settings: source organism: Influenza A virus H3N2
HLA-A*31:01 [9] = assay: as above; settings: source organism: Influenza A virus H3N2
HLA-A*68:23 = assay: as above
HLA-B*15:42 = assay: as above
HLA-B*45:06 = assay: as above
HLA-B*83:01 = assay: as above
HLA-A*11:01 = assay: IEDB peptide-MHC binding, purified MHC/direct/fluorescence; filed as Kd, often an IC50 or EC50 that approximates it; ≥ and ≤ were set here for values at or beyond the usual limits of such assays
HLA-A*26:03 [10] = assay: as above; settings: source organism: Burkholderia mallei ATCC 23344
HLA-A*68:02 = assay: as above
HLA-B*15:17 = assay: as above
HLA-B*18:01 = assay: as above
HLA-B*46:01 = assay: as above
HLA-B*48:01 = assay: as above
HLA-B*57:01 = assay: as above
HLA-B*15:01 [11] = assay: IEDB peptide-MHC binding, purified MHC/competitive/fluorescence; filed as Kd, often an IC50 or EC50 that approximates it; ≥ and ≤ were set here for values at or beyond the usual limits of such assays
HLA-C*06:02 = assay: IEDB peptide-MHC binding, purified MHC/direct/fluorescence; filed as Kd, often an IC50 or EC50 that approximates it; ≥ and ≤ were set here for values at or beyond the usual limits of such assays; settings: source organism: Yersinia pseudotuberculosis IP 31758
HLA-B*40:01 [12] = assay: IEDB peptide-MHC binding, purified MHC/competitive/fluorescence; filed as Kd, often an IC50 or EC50 that approximates it; ≥ and ≤ were set here for values at or beyond the usual limits of such assays; settings: source organism: Yersinia pseudotuberculosis IP 31758
HLA-A*02:06 = assay: as above; settings: source organism: Ehrlichia chaffeensis
HLA-A*26:01 [13] = assay: as above; settings: source organism: Ehrlichia chaffeensis
HLA-A*26:03 [14] = assay: as above; settings: source organism: Ehrlichia chaffeensis
HLA-B*07:02 [15] = assay: as above; settings: source organism: Ehrlichia chaffeensis
HLA-B*27:05 [16] = assay: as above; settings: source organism: Ehrlichia chaffeensis
HLA-B*35:01 = assay: as above; settings: source organism: Ehrlichia chaffeensis
[17] = source organism: Rickettsia sibirica
[18] = source organism: Influenza A virus H3N2
[19] = source organism: Burkholderia mallei
[20] = source organism: Yersinia pseudotuberculosis IP 31758
[21] = source organism: Brucella abortus 2308

AIKPITDQF was tested. Which Kd (HLA-A*01:01; [17]) did it give?
The Kd was ≥ 20 µM.

And the Kd (HLA-A*02:01; [17])?
Its Kd is ≥ 20 µM.

What about the Kd (HLA-A*03:01 [1]; [17]) of the same sequence?
Its Kd is ≥ 20 µM.

What about the Kd (HLA-A*26:01 [2]; [17]) of the same sequence?
The Kd was ≥ 20 µM.

And the Kd (HLA-A*30:01)?
The Kd was 8.09 µM.

What about the Kd (HLA-A*31:01 [3]; [17]) of the same sequence?
Its Kd is ≥ 20 µM.

And the Kd (HLA-A*69:01; [17])?
Its Kd is ≥ 20 µM.

And the Kd (HLA-B*07:02 [4]; [17])?
Its Kd is 5.83 µM.

What about the Kd (HLA-B*08:01) of the same sequence?
The Kd was ≥ 20 µM.

What about the Kd (HLA-B*15:01 [5]; [17]) of the same sequence?
Its Kd is ≥ 20 µM.

And the Kd (HLA-B*27:05 [6]; [17])?
The Kd was ≥ 20 µM.

And the Kd (HLA-B*40:01 [7]; [17])?
The Kd was ≥ 20 µM.

What about the Kd (HLA-B*44:02) of the same sequence?
The Kd was ≥ 20 µM.

What about the Kd (HLA-B*58:01; [17]) of the same sequence?
Its Kd is ≥ 10 µM.

What does the source list for FSFGGFTFK?
Kd (HLA-A*03:01 [8]): 0.0037 µM; Kd (HLA-A*31:01 [9]): ≤ 0.001 µM; Kd (HLA-A*68:23; [18]): 0.0219 µM; Kd (HLA-B*15:42; [18]): ≥ 5 µM; Kd (HLA-B*45:06; [18]): ≥ 5 µM; Kd (HLA-B*83:01; [18]): ≥ 5 µM

For IQRRGAQFQ, which Kd (HLA-A*01:01; [19]) is on record?
Its Kd is ≥ 20 µM.

And the Kd (HLA-A*02:01; [19])?
Its Kd is ≥ 20 µM.

And the Kd (HLA-A*03:01 [1]; [19])?
Its Kd is ≥ 20 µM.

What about the Kd (HLA-A*11:01; [19]) of the same sequence?
The Kd was ≥ 20 µM.

What about the Kd (HLA-A*26:01 [2]; source organism: Burkholderia mallei ATCC 23344) of the same sequence?
The Kd was ≥ 20 µM.

And the Kd (HLA-A*26:03 [10])?
The Kd was ≥ 20 µM.

What about the Kd (HLA-A*31:01 [3]; [19]) of the same sequence?
Its Kd is ≥ 20 µM.

And the Kd (HLA-A*68:02; [19])?
Its Kd is ≥ 20 µM.

What about the Kd (HLA-B*07:02 [4]; [19]) of the same sequence?
The Kd was ≥ 20 µM.

And the Kd (HLA-B*15:17; [19])?
The Kd was ≥ 20 µM.

And the Kd (HLA-B*18:01; [19])?
The Kd was ≥ 20 µM.

And the Kd (HLA-B*27:05 [6]; [19])?
Its Kd is ≥ 20 µM.

And the Kd (HLA-B*40:01 [7]; [19])?
Its Kd is ≥ 20 µM.

What about the Kd (HLA-B*46:01; [19]) of the same sequence?
The Kd was ≥ 20 µM.

And the Kd (HLA-B*48:01; [19])?
The Kd was ≥ 20 µM.

And the Kd (HLA-B*57:01; [19])?
The Kd was ≥ 20 µM.

And the Kd (HLA-B*58:01; [19])?
The Kd was ≥ 20 µM.

What about the Kd (HLA-B*15:01 [11]; source organism: Burkholderia mallei SAVP1) of the same sequence?
The Kd was 3.18 µM.

For RQMRASAPL, which Kd (HLA-C*06:02) is on record?
The Kd was ≥ 20 µM.

And the Kd (HLA-A*68:23; [20])?
The Kd was 0.0024 µM.

And the Kd (HLA-B*15:01 [11]; [20])?
Its Kd is 0.145 µM.

What about the Kd (HLA-B*15:42; [20]) of the same sequence?
The Kd was ≥ 5 µM.

What about the Kd (HLA-B*40:01 [12]) of the same sequence?
Its Kd is 0.0181 µM.

And the Kd (HLA-B*45:06; [20])?
The Kd was ≥ 5 µM.

What about the Kd (HLA-B*83:01; [20]) of the same sequence?
The Kd was ≥ 5 µM.

Which results are given for RVYKNYDPR?
Kd (HLA-A*01:01; [21]): ≥ 20 µM; Kd (HLA-A*02:01; [21]): ≥ 20 µM; Kd (HLA-A*11:01; [21]): 0.101 µM; Kd (HLA-A*31:01 [3]; [21]): 0.0513 µM; Kd (HLA-A*68:02; [21]): ≥ 20 µM; Kd (HLA-A*69:01; [21]): ≥ 20 µM; Kd (HLA-B*15:01 [5]; [21]): ≥ 20 µM; Kd (HLA-B*15:17; [21]): ≥ 20 µM; Kd (HLA-B*18:01; [21]): ≥ 20 µM; Kd (HLA-B*40:01 [7]; [21]): ≥ 20 µM; Kd (HLA-B*46:01; [21]): ≥ 20 µM; Kd (HLA-B*48:01; [21]): ≥ 20 µM; Kd (HLA-B*57:01; [21]): ≥ 20 µM; Kd (HLA-B*58:01; [21]): ≥ 20 µM; Kd (HLA-A*02:06): ≥ 20 µM; Kd (HLA-A*26:01 [13]): ≥ 20 µM; Kd (HLA-A*26:03 [14]): ≥ 20 µM; Kd (HLA-B*07:02 [15]): ≥ 20 µM; Kd (HLA-B*27:05 [16]): 1.06 µM; Kd (HLA-B*35:01): 1.67 µM
